Reference: publication PMC6745524, “Diverse roles of TssA‐like proteins in the assembly of bacterial type VI secretion systems” (The EMBO Journal, 2019)

Target: the molecule itself
Experiment: cryo-EM structure

B1: TssAVC (TssA of Vibrio cholerae, VCA0119), purified (natural protein)
chain: MEMTEYRQCVAKPISSSNPVGERLVDHPLFDFIEDQMMKVGSLSHASVQWDEVEHSTLKLLGEQSKDIKLLVYLLQCLHNQVTPTRLITSFAVMSEFLNQYWNDSYPAPGPRGNLPRRKFFSQMAQRFTTVIEKFDFHHLDEADRQALQAAVEEWQQAVEKQGLSSELVESVVVRITAEIKRAEQRQQVTAQSSAERETPSAATPSPAASMVVDHSSDKAAKQTLLKVADFLAEQEFGIALSIRLRRFAVWGSITSLPDHKPDGETLLRGMQADRVKDYQDQLRHPDLALWRKVEQSLTMAPYWFEGQWMSYTIAQQLGKSDWCQAIAEETQQFLRRLPSLLELKFKGGEPFVSDSVKEWLASVGQSQGAAGQSVGGDWQEKRKEAFQLAKEGGIAVALSMLNDGLVSAVEPRDKFYWRLLSADLLRANHLDAMAGEQYQTLLNQVTTLSVPEWEPSLVEQIQRYTTSE
notes: The His10 tag was removed with TEV protease; Only the CTD (G376-T466) is built in the atomic model; also called TsaC (proposed name); not shown: His10, N-terminal, cleaved; copies: 12
In the case of B1, the “stoichiometry N” value is reported as 12.
